Experimental data reported in US20110275559A1, “Long-Acting Y2 and/or Y4 Receptor Agonists” (Novo Nordisk A/S, priority 2008, published 2011).
*1 amine or outer side, *2 acyl side, *3 side chain or, on linkers, in order; H or OH if unused. Where a SMILES comes first, the peptide text is derived from it. Where no end group is shown, it is not given here. Side-chain parts run from the residue outwards. The star is where a group is joined. C20 diacid = O=C(O)CCCCCCCCCCCCCCCCCCC(=O)*; C18 diacid = O=C(O)CCCCCCCCCCCCCCCCC(=O)*; γGlu = O=C(O)[C@H](CCC(=O)[*:2])N[*:1]; Trx = NC[C@H]1CC[C@H](C(=O)O)CC1; AEEA = NCCOCCOCC(=O)O

How the values were obtained:
in vivo = details: Göttingen, minipig, iv
Description: (§1) The mini-pigs had two central venous catheters inserted which were used for intra venous (i.v.) dosing and bloodsampling. Compound was dissolved in 50 mM K2HPO4, 0.05% tween 80, pH=8.0 to a concentration of 180 nmol/ml. The pigs were dosed with 6 nmol compound/kg body weight. […] The blood samples were collected into test tubes containing EDTA buffer for stabilization and kept on ice for max. 20 minutes before centrifugation. The centrifugation procedure to separate plasma was; 4° C., 3000 rpm for 10 minutes. Plasma were collected and immediately transferred to Micronic tubes stored at −20° C. until assayed.
An additional mini-pig PK assay was used for measuring PK of the compounds of the invention. […] The animals had two central venous catheters inserted which were used for intra venous (i.v.) dosing and blood sampling. Compounds were dissolved in 10 mM Na2HPO4, 150 mM NaCl, 0.01% tween 80, pH=4.0 to concentrations in the range of 40 nmol/ml to 200 nmol/ml. The mini-pigs were dosed i.v. with 10 nmol compound/kg body weight, occasionally other doses such as 4 nmol/kg, 30 nmol/kg or 50 nmol/kg were administered. Each compound was dosed to 3 or 4 mini-pigs, and two compounds may be given simultaneously to the same animal. Blood were sampled pre-dose and 12 times during the first 10 hours post-dose. Blood were furthermore sampled once daily until 13 days post dosing. The blood samples were collected into test tubes containing EDTA buffer, trasylol and Val-Pyr for stabilization and kept on ice for max. 20 minutes. Samples were centrifuged at 4° C., 2000G for 10 minutes to separate plasma. Plasma were collected and immediately transferred to Micronic tubes stored at −20° C. until assayed.
Plasma samples were analysed by LC-MS on an LTQ-Orbitrap (ThermoFisher Scientific, Bremen) to which Accela HPLC pumps and an autosampler were connected (both from ThermoFisher). […] HPLC was performed on a Jupiter Proteo column (4μ) 90A (50×2.0 mm ID). […] The flow rate was 0.3 ml/min. For analysis of plasma samples, 30 μl plasma was precipitated with 90 μl ethanol. […] The heptane phase was removed after 5 min and the remaining solution was analysed by LC-MS as described above. For construction of plasma standards, compound was spiked to plasma (minipig) at the following concentrations: 1 nM, 2 nM, 5 nM, 10 nM, 20 nM, 50 nM, 100 nM, 200 nM. The plasma standards were treated as the samples. The lower limit of quantification was estimated to 2 nM.
Non-compartmental analysis (NCA): Plasma concentration-time profiles were analyzed by non-compartmental pharmacokinetics analysis (NCA) using WinNonlin Professional 5.0 (Pharsight Inc., Mountain View, Calif., USA). NCA was performed using the individual plasma concentration-time profiles from each animal.
For determination of plasma concentration of the PYY and PP peptide derivative or analogues thereof the following Methods 1-4 were used.
as §1, with “bloodsampling. The compound” for “bloodsampling. Compound”, “to an appropriate” for “to a”, “concentration (e.g. 25-500 nmol/mL).” for “concentration of 180 nmol/ml.”, “dosed intravenously (i.v.) or subcutaneously (s.c.)” for “dosed”, “with between 1 and 30” for “with 6”, “buffer (with Aprotinin 15000 KIE/mL and Val-Pyr 0.30 mM)” for “buffer”
An additional mini-pig PK assay was used for measuring PK of the compounds of the invention. […] The animals had two central venous catheters inserted which were used for intra venous (i.v.) dosing and blood sampling.

Y2 receptor = target: T1, Y2 receptor (UniProt P49146 1-381, limits assumed); assay: cell-based or functional assay
T1 sequence (looked up): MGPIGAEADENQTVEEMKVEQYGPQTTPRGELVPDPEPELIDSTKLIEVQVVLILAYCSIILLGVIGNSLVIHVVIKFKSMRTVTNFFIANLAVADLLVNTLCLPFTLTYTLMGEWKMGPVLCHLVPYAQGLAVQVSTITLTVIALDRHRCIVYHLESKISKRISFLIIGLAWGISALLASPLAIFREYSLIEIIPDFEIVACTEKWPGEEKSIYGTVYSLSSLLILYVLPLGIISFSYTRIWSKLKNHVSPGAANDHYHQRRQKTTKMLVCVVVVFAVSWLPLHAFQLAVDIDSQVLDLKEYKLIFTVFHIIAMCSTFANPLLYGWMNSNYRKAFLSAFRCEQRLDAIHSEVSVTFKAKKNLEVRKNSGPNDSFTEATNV

Y4 receptor = Y4 receptor (UniProt P50391 1-375, limits assumed); assay: cell-based or functional assay
Sequence of Y4 receptor (P50391 whole entry): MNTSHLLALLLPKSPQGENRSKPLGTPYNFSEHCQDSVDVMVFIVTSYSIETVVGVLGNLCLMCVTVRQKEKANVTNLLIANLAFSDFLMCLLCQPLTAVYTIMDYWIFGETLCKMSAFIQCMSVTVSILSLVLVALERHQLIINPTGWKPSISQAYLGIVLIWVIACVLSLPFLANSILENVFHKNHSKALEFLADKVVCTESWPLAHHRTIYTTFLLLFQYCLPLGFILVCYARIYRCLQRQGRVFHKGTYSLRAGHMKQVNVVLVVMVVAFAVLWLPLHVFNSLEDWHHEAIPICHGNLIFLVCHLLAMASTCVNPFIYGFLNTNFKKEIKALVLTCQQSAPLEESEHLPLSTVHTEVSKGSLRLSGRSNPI

CC[C@H](C)[C@H](NC(=O)[C@H](Cc1ccc(O)cc1)NC(=O)[C@H](CCCNC(=N)N)NC(=O)[C@H](CCCNC(=N)N)NC(=O)[C@H](CC(C)C)NC(=O)[C@H](CC(=O)O)NC(=O)[C@H](C)NC(=O)[C@H](C)NC(=O)[C@H](Cc1ccc(O)cc1)NC(=O)[C@H](CCC(N)=O)NC(=O)[C@H](C)NC(=O)[C@H](CC(C)C)NC(=O)[C@H](CCC(N)=O)NC(=O)[C@H](CCC(=O)O)NC(=O)[C@@H]1CCCN1C(=O)[C@@H](NC(=O)[C@H](C)NC(=O)[C@H](CC(N)=O)NC(=O)[C@H](CC(=O)O)NC(=O)CNC(=O)[C@@H]1CCCN1C(=O)[C@H](Cc1ccc(O)cc1)NC(=O)[C@@H](NC(=O)[C@@H]1CCCN1C(=O)[C@H](CCC(=O)O)NC(=O)[C@H](CC(C)C)NC(=O)[C@@H]1CCCN1)C(C)C)[C@@H](C)O)C(=O)N[C@@H](CC(N)=O)C(=O)N[C@@H](CC(C)C)C(=O)N[C@@H](CC(C)C)C(=O)N[C@H](C(=O)N[C@@H](CCCNC(=N)N)C(=O)N1CCC[C@H]1C(=O)N[C@@H](CCCCNC(=O)COCCOCCNC(=O)COCCOCCNC(=O)CC[C@H](NC(=O)CCCCCCCCCCCCCCCCC(=O)O)C(=O)O)C(=O)N[C@@H](Cc1ccc(O)cc1)C(N)=O)[C@@H](C)O [SEQ ID NO: 47, N-epsilon35-[2-(2-{2-[2-(2-{2-[(S)-4-Carboxy-4-(17-carboxyheptadecanoylamino)butyrylamino]ethoxy}ethoxy)acetylamino]-ethoxy}ethoxy)acetyl][Leu17,Leu30,Lys35]hPP2-36] (H-PLEPVYPGDNATPEQLAQYAADLRRYINLLTRPK([AEEA-AEEA-γGlu-C18 diacid])Y-NH2)
half-life (in vivo; 10 nmol/kg): 78 h

CC[C@H](C)[C@H](NC(=O)[C@H](Cc1ccc(O)cc1)NC(=O)[C@H](CCCNC(=N)N)NC(=O)[C@H](CCCCNC(=O)COCCOCCNC(=O)COCCOCCNC(=O)CC[C@H](NC(=O)[C@H]1CC[C@H](CNC(=O)CCCCCCCCCCCCCCCCCCC(=O)O)CC1)C(=O)O)NC(=O)[C@H](CC(C)C)NC(=O)[C@H](CC(=O)O)NC(=O)[C@H](C)NC(=O)[C@H](C)NC(=O)[C@H](Cc1ccc(O)cc1)NC(=O)[C@H](CCC(N)=O)NC(=O)[C@H](C)NC(=O)[C@H](CC(C)C)NC(=O)[C@H](CCC(N)=O)NC(=O)[C@H](CCC(=O)O)NC(=O)[C@@H]1CCCN1C(=O)[C@@H](NC(=O)[C@H](C)NC(=O)[C@H](CC(N)=O)NC(=O)[C@H](CC(=O)O)NC(=O)CNC(=O)[C@@H]1CCCN1C(=O)[C@H](Cc1ccc(O)cc1)NC(=O)[C@@H](NC(=O)[C@@H]1CCCN1C(=O)[C@H](CCC(=O)O)NC(=O)[C@H](CC(C)C)NC(=O)[C@@H]1CCCN1C(=O)[C@H](C)N)C(C)C)[C@@H](C)O)C(=O)N[C@@H](CC(N)=O)C(=O)N[C@@H](CC(C)C)C(=O)N[C@@H](CC(C)C)C(=O)N[C@H](C(=O)N[C@@H](CCCNC(=N)N)C(=O)N1CCC[C@H]1C(=O)N[C@@H](CCCNC(=N)N)C(=O)N[C@@H](Cc1ccc(O)cc1)C(N)=O)[C@@H](C)O [SEQ ID NO: 71, N-epsilon25-[2-(2-{2-[2-(2-{2-[(S)-4-Carboxy-4-({trans-4-[(19-carboxynonadecanoylamino)methyl]cyclohexanecarbonyl}amino)butyrylamino]-ethoxy}ethoxy)acetylamino]ethoxy}ethoxy)acetyl][Leu17,Lys25,Leu30]hPP1-36] (H-APLEPVYPGDNATPEQLAQYAADLK([AEEA-AEEA-γGlu-Trx-C20 diacid])RYINLLTRPRY-NH2)
half-life (in vivo; in vivo, 13 nmol/kg): 13 h

CC[C@H](C)[C@H](NC(=O)[C@H](Cc1ccc(O)cc1)NC(=O)[C@H](CCCNC(=N)N)NC(=O)[C@H](CCCNC(=N)N)NC(=O)[C@H](CC(C)C)NC(=O)[C@H](CC(=O)O)NC(=O)[C@H](C)NC(=O)[C@H](C)NC(=O)[C@H](Cc1ccc(O)cc1)NC(=O)[C@H](CCC(N)=O)NC(=O)[C@H](C)NC(=O)[C@H](CC(C)C)NC(=O)[C@H](CCC(N)=O)NC(=O)[C@H](CCC(=O)O)NC(=O)[C@@H]1CCCN1C(=O)[C@H](CCCCNC(=O)COCCOCCNC(=O)COCCOCCNC(=O)CC[C@H](NC(=O)[C@H]1CC[C@H](CNC(=O)CCCCCCCCCCCCCCCCCCC(=O)O)CC1)C(=O)O)NC(=O)[C@H](C)NC(=O)[C@H](CC(N)=O)NC(=O)[C@H](CC(=O)O)NC(=O)CNC(=O)[C@@H]1CCCN1C(=O)[C@H](Cc1ccc(O)cc1)NC(=O)[C@@H](NC(=O)[C@@H]1CCCN1C(=O)[C@H](CCC(=O)O)NC(=O)[C@H](CC(C)C)NC(=O)[C@@H]1CCCN1C(=O)[C@H](C)N)C(C)C)C(=O)N[C@@H](CC(N)=O)C(=O)N[C@@H](CC(C)C)C(=O)N[C@@H](CC(C)C)C(=O)N[C@H](C(=O)N[C@@H](CCCNC(=N)N)C(=O)N[C@@H](CCC(N)=O)C(=O)N[C@@H](CCCNC(=N)N)C(=O)N[C@@H](Cc1ccc(O)cc1)C(=O)O)[C@@H](C)O [SEQ ID NO: 74, N-epsilon13-[2-(2-{2-[2-(2-{2-[(S)-4-Carboxy-4-({trans-4-[(19-carboxynonadecanoylamino)methyl]cyclohexanecarbonyl}amino)butyrylamino]-ethoxy}ethoxy)acetylamino]ethoxy}ethoxy)acetyl][Leu17,Lys13,Gln34]hPP1-36 acid] (H-APLEPVYPGDNAK([AEEA-AEEA-γGlu-Trx-C20 diacid])PEQLAQYAADLRRYINLLTRQRY-OH; N-terminus assumed)
half-life (in vivo; 16 nmol/kg): 8 h

PLEPVYPGDNATPEQLAQYAADLRRYINLLTRPK([AEEA-AEEA-γGlu-Trx-C20 diacid])Y (ends and bridges not checked)
Y2 cAMP EC50 (Y2 receptor): > 1000 nM
Y4 cAMP EC50 (Y4 receptor): > 1000 nM

PLEPVYPGK([AEEA-AEEA-γGlu-Trx-C20 diacid])NATPEQLAQYAADLRRYINLLTRQRY (ends and bridges not checked)
Y2 cAMP EC50 (Y2 receptor): 25 nM

B1: N-alfa-[2-(2-{2-[2-(2-{2-[(S)-4-Carboxy-4-({trans-4-[(19-carboxynonadecanoylamino)methyl]cyclohexanecarbonyl}amino)butyrylamino]-ethoxy}ethoxy)acetylamino]ethox … (peptide)
peptide: PLEPVYPGDNATPEQLAQYAADLRRYINLLTRPRY
modifications: not fully specified (N-terminus); printed as N-alfa-[2-(2-{2-[2-(2-{2-[(S)-4-Carboxy-4-({trans-4-[(19-carboxynonadecanoylamino)methyl]cyclohexanecarbonyl}amino)butyrylamino]-ethoxy}ethoxy)acetylamino]ethoxy}ethoxy)acetyl][Leu17,Leu30]hPP2-36; ends and bridges not checked
Y2 cAMP EC50 (Y2 receptor): > 1000 nM

APLEPVYPGDNAK([AEEA-AEEA-γGlu-C18 diacid])PEQMAQYAADLRRYINMLTRPRY (ends and bridges not checked) [N-epsilon13-[2-(2-{2-[2-(2-{2-[(S)-4-Carboxy-4-(17-carboxyheptadecanoylamino)butyrylamino]ethoxy}ethoxy)acetylamino]-ethoxy}ethoxy)acetyl][Lys13]hPP(1-36) (as …, listing 1 of 2 here]
Y4 cAMP EC50 (Y4 receptor): 2 nM

APLEPVYPGDNAK([AEEA-AEEA-γGlu-C18 diacid])PEQMAQYAADLRRYINMLTRPRY (ends and bridges not checked) [N-epsilon13-[2-(2-{2-[2-(2-{2-[(S)-4-Carboxy-4-(17-carboxyheptadecanoylamino)butyrylamino]ethoxy}ethoxy)acetylamino]-ethoxy}ethoxy)acetyl][Lys13]hPP(1-36) (as …, listing 2 of 2 here]
Y4 cAMP EC50 (Y4 receptor): 4 nM

{C18 diacid-γGlu-AEEA-AEEA}-PLEPVYPGDNATPEQLAQYAADLRRYINLLTRPRY (ends and bridges not checked)
Y2 cAMP EC50 (Y2 receptor): > 1000 nM
